Test results: patent US20040235714A1 (Amgen, published 2004)

T1: human GDNFR-α Related Receptor 2 (GRR2), endogenously expressed on LA-N-5 neuroblastoma cells (human, UniProt O00451 22-444)
T1 construct: whole, on cells; GDNFR-α mRNA was not detected; The cells also express Ret; also called hGRR2
T1 sequence (looked up): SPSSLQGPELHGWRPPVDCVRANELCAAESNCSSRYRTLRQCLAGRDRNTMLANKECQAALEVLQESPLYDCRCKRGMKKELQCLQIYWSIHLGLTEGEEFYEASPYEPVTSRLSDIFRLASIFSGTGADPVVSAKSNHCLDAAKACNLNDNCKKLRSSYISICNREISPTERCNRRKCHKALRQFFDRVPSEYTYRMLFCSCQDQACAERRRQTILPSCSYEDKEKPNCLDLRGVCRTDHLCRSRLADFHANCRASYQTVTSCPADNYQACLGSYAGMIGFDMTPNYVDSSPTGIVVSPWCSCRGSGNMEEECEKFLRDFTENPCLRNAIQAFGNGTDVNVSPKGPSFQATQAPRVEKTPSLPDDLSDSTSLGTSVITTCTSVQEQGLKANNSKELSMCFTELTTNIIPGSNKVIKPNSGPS

T2: rat GDNF receptor-alpha (GDNFR-α) expressed on cells from the rat cDNA clone (rat, UniProt Q62997 25-430, GPI-anchored to the cell membrane)
T2 construct: also called rGDNFR-α
T2 sequence: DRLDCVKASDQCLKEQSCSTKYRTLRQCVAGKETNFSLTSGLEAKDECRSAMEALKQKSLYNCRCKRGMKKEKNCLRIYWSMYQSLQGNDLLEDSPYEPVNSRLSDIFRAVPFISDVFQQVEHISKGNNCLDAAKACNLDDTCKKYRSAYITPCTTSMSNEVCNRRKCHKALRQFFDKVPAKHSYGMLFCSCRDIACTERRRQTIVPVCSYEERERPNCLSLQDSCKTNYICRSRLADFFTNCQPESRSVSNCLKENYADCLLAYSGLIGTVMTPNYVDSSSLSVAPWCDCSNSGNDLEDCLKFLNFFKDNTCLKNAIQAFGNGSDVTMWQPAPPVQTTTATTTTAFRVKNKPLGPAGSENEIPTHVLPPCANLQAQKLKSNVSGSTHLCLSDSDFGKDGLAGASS

B1: neurturin, recombinant human (ligand, UniProt Q99748 96-197, looked up)
chain: ARLGARPCGLRELEVRVSELGLGYASDETVLFRYCAGACEAAARVYDLGLRRLRQRRRLRRERVRAQPCCRPTAYEDEVSFLDAHSRYHTVHELSARECACV
modifications: radio-iodinated ([125I]) in the binding and cross-linking assays; unlabeled as competitor and in the phosphorylation assays
notes: mature; also called NTN
B2: glial cell line-derived neurotrophic factor (GDNF), recombinant human (ligand, UniProt P39905 78-211, looked up)
chain: SPDKQMAVLPRRERNRQAAAANPENSRGKGRRGQRGKNRGCVLTAIHLNVTDLGLGYETKEELIFRYCSGSCDAAETTYDKILKNLSRNRRLVSDKVGQACCRPIAFDDDLSFLDDNLVYHILRKHSAKRCGCI
modifications: radio-iodinated ([125I]) in the binding and cross-linking assays; unlabeled as competitor and in the phosphorylation assays
notes: mature; also called unlabeled GDNF

What was measured:
[1] = biological target: T1, human GDNFR-α Related Receptor 2 …; test: summary of Example 10 (cell binding and cross-linking)
[2] = biological target: T2, rat GDNF receptor-alpha (GDNFR-α) …; test: GDNF binding to 293T cells expressing GDNFR-α; low affinity sites
[3] = biological target: T2, rat GDNF receptor-alpha (GDNFR-α) …; test: GDNF binding to 293T cells expressing GDNFR-α; high affinity sites
[4] = biological target: T2, rat GDNF receptor-alpha (GDNFR-α) …; test: equilibrium binding of [125I]GDNF to NGR-38 cells, Scatchard plot; low affinity site
Protocol: (§1) Following incubation, unbound [¹²⁵I]GDNF was removed and the radioactivity associated with the cells was determined as described in Experimental Procedures. Results are depicted in FIG. 7: (A) Equilibrium binding of [¹²⁵I]GDNF to NGR-38 cells (circles) and Neuro-2a cells (squares) in the presence (open circles and open squares) or absence (filled circles and filled squares) of unlabeled GDNF; (B) Scatchard analysis of [¹²⁵I]GDNF binding to NGR-38 cells.
(§2) Neuro-2a cells (ATCC #CCL 131) were transfected with an expression plasmid, as described above, using the Calcium Phosphate Transfection System (GIBCO/BRL) according to the manufacturer's directions. Transfected cells were selected for expression of the plasmid by growth in 400 μg/mL G418 antibiotic (Sigma). G418 resistant clones were expanded and assayed for GDNFR-α expression by binding to [¹²⁵I]GDNF (Amersham, Inc., custom iodination, catalog #IMQ1057). Cells from each clone were seeded at a density of 3×10⁴ cells/cm² in duplicate wells of 24-well tissue culture plates (Becton Dickinson) pre-coated with polyornithine. […] Cells were then washed four times with ice-cold washing buffer, lysed in 1 M NaOH, and the cell-associated radiolabel quantitated in a 1470 Wizard Automated Gamma Counter (Wallac Inc.). […]

[5] = biological target: T2, rat GDNF receptor-alpha (GDNFR-α) …; test: equilibrium binding of [125I]GDNF to NGR-38 cells, Scatchard plot; high affinity site
Protocol: as §1, §2

[6] = biological target: T2, rat GDNF receptor-alpha (GDNFR-α) …; test: 50 pM [125I]GDNF on NGR-16 cells with or without excess unlabeled GDNF, gamma counting
Protocol: (§3) Neuro-2a cells were transfected with a mammalian expression vector containing the rat GDNFR-α cDNA (such as the expression plasmid described above). Three clonal lines, NGR-16, NGR-33, and NGR-38 were tested for their ability to bind [¹²⁵I]GDNF. The unbound [¹²⁵I]GDNF was removed at the end of the incubation and the amount of radioactivity associated with the cells was determined as described in Experimental Procedures. […] Binding could be effectively competed by the addition of 500 nM unlabeled GDNF.
as §2

[7] = biological target: T2, rat GDNF receptor-alpha (GDNFR-α) …; test: 50 pM [125I]GDNF on NGR-33 cells with or without excess unlabeled GDNF, gamma counting
Protocol: as §3, §2

[8] = biological target: T2, rat GDNF receptor-alpha (GDNFR-α) …; test: 50 pM [125I]GDNF on NGR-38 cells with or without excess unlabeled GDNF, gamma counting
Protocol: as §3, §2

[9] = biological target: T2, rat GDNF receptor-alpha (GDNFR-α) …; test: Scatchard analysis of GDNF binding to 293T cells transfected with a GDNFR-α cDNA clone in pBKRSV; low affinity site

| Binder | binding result [1] | Kd [2] [nM] | Kd [3] [nM] | Kd [4] [nM] | Kd [5] [nM] | ratio of [125I]GDNF bound in the absence and presence of unlabeled GDNF [6] | ratio of [125I]GDNF bound in the absence and presence of unlabeled GDNF [7] | ratio of [125I]GDNF bound in the absence and presence of unlabeled GDNF [8] | Kd [9] [nM] |
| --- | --- | --- | --- | --- | --- | --- | --- | --- | --- |
| B1 | binds | – | – | – | – | – | – | – | – |
| B2 | binds | ~0.2 | ~0.002 | 0.332 | 0.0015 | 12.8 | 8 | 16 | ~0.5 |
